In article PMC2885457 one finds stoichiometry N data, which are given here for 1 substance.

Experiment [1] has as its target Giardia lamblia tryptophanyl-tRNA synthetase (Giardia lamblia (strain WB)). Put plainly: SEC. A general note: In gel filtration, larger molecules generally elute earlier.
Experiment [2] has the same target. The experiment can be described thus: SEC. The source holds these as a separate data set.

Read-outs that look alike come from different tables or passages of the source.

As to “Giardia lamblia tryptophanyl-tRNA synthetase (enzyme)”, the stoichiometry N in experiment [1] and in experiment [2] was 2 throughout.

One may read the stoichiometry N as the number of molecules, sites or subunits per partner or assembly.
